Test [1] deals with T1, human angiopoietin-1 (human, UniProt Q15389 20-498).
T1 construct: also called hAng-1; Human Ang1
T1 sequence (looked up): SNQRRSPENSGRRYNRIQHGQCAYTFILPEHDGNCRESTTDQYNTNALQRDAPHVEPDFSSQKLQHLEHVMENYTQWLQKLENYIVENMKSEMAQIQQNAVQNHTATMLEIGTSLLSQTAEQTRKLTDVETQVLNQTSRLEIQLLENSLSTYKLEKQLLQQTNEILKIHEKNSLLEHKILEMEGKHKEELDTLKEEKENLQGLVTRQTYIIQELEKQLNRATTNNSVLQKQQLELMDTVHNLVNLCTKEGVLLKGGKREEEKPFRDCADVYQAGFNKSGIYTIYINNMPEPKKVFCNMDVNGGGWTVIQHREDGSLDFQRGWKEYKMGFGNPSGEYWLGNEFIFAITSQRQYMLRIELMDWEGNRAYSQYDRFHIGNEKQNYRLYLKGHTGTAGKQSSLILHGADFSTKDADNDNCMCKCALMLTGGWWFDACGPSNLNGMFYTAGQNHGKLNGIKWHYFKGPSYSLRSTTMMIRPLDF
Briefly: Affinity ELISA on plate-bound hAng-1. For orientation: An ELISA detects its analyte on a solid surface through an enzyme-linked reagent.

In test [2] the target is T2, human angiopoietin-2 (human, UniProt O15123 19-496, limits assumed).
T2 construct: also called hAng-2; huAng-2
T2 sequence (looked up): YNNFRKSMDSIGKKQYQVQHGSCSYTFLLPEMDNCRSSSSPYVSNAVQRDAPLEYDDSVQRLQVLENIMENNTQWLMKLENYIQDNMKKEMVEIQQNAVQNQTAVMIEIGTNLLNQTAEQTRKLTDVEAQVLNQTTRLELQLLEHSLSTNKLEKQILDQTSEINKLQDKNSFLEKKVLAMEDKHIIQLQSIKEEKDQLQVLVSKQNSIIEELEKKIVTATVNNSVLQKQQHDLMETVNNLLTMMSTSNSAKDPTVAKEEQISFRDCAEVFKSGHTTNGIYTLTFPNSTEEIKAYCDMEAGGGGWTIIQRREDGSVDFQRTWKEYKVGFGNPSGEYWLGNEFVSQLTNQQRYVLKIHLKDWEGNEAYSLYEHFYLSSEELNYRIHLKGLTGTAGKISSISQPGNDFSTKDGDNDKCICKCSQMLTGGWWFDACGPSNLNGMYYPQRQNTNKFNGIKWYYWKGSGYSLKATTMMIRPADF
In words: Affinity ELISA on plate-bound hAng-2.

Test [3] deals with T3, murine Ang-2, His-tagged (mouse, UniProt O35608 19-496).
T3 construct: also called mAng-2; mAng-2-His
T3 sequence (looked up): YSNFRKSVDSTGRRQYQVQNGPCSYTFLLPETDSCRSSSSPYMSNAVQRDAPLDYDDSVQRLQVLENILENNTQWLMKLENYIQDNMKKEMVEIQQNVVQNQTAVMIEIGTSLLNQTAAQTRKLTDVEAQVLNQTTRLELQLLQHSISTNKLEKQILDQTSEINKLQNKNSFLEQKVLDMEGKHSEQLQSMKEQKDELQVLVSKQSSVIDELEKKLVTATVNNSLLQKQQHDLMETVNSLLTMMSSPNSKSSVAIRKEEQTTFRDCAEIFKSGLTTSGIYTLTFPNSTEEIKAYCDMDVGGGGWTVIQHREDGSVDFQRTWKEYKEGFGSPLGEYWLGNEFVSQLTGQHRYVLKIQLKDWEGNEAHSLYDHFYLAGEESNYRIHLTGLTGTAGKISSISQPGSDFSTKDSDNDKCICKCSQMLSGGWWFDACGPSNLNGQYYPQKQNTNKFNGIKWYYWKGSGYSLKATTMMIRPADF
In words: Affinity ELISA on plate-bound mAng-2.

Test [4] concerns the target T3, murine Ang-2, His-tagged. Briefly: BIAcore: antibody captured on Protein G, mAng-2 injected. Here is the method: (§1) Binding assays were carried out by first attaching about 100 Ru of each candidate anti-Ang-2 antibody to the immobilized Protein G, after which various concentrations (0-100 nM) of huAng-2 or mAng-2 were then injected over the bound antibody surface at a flow rate of about 50 ul/min for about 3 minutes. Antibody binding kinetics including kₐ (association rate constant), kd (dissociation rate constant) and KD (dissociation equilibrium constant) were determined using the BIA evaluation 3.1 computer program (BIAcore, Inc.).
For orientation: Surface plasmon resonance follows binding to a sensor surface in real time, without labels.

Test [5] addresses T2, human angiopoietin-2. In words: BIAcore: antibody captured on Protein G, huAng-2 injected. As to the method: as §1
For test [6], the target named is T1, human angiopoietin-1. Briefly: Neutralization ELISA: antibody titrated against 1 nM Tie2-Fc on plate-bound hAng-1.
Test [7] has as its target T2, human angiopoietin-2. In words: Neutralization ELISA: antibody titrated against 1 nM Tie2-Fc on plate-bound hAng-2. Here is the method: Microtiter plates to which human Ang-2 polypeptide was bound were prepared as described for the Affinity ELISA. […] Next, about 100 microliters per well of goat anti-mouse-IgG-HRP (Pierce Chemical CO., catalog #31432) was added at a dilution of 1:10,000 in PBS containing about 1 percent BSA. Plates were incubated at room temperature for about 1 hour, after which they were washed five times with PBS containing about 0.1 percent Tween-20. About 100 microliters per well of TMB substrate (described above) was then added and color was allowed to develop. Absorbance was then read in a spectrophotomer at 370 nm.
Seventeen of the antibodies and a negative control IgG1 (referred to as RDB1) were tested using affinity and neutralization ELISA (as described in Example 3 above) as well as the BIAcore neutralization assay to determine their affinity, neutralization, and specificity capabilities.

Test [8] has as its target T3, murine Ang-2, His-tagged. In words: Neutralization ELISA: antibody titrated against 1 nM Tie2-Fc on plate-bound mAng-2.
Test [9] concerns the target T4, Tie2-Fc (human, UniProt Q02763 23-748).
T4 construct: extracellular domain; Bought reagent; Allophycocyanin-conjugated in the HTRF assay; also called hTie2-Fc; human Tie2-Fc; not shown: Fc portion of the bought Tie2-Fc
Briefly: ELISA at one concentration on conditioned medium with N-terminal hAng-2 (aa 1-254, 6xHis); O.D. 370; control pCDNA3 vector medium. Here is the method:
The binding epitope of anti-Ang-2 antibodies and peptibodies was determined by their ability to bind the three versions of human hAng-2 by ELISA according to the following protocol: a high-binding 96-well assay plate was coated with 100 μl of conditioned media per well, and incubated at 37° C. for 1 hour. Conditioned media was aspirated, and the plate was blocked with 200 μl per well of 5% BSA in PBS at room temperature for 1 hour. The blocking solution was then aspirated. […] The wells were washed 4 times with 200 μl of 0.1% Tween in PBS. 100 μl per well of HRP-conjugated goat anti-human IgG or goat anti-mouse IgG were added, and incubated at room temperature for 45 minutes. The wells were then washed with 200 μl of 0.1% Tween in PBS 4 times. 100 μl per well of TMB substrate was then added. O.D. was read at 370 nm.

Test [10] has as its target T2, human angiopoietin-2. Briefly: HTRF: antibody titrated against biotinylated human Ang2 and APC-conjugated human Tie2-Fc. As to the method: For HTRF assays, a ninety-six-well microtiter “mix plate” was prepared by adding 50 ul of HTRF buffer (50 mM Tris-HCl, pH 7.5, 100 mM NaCl, 0.05% Tween 20, 0.1% BSA) containing 0.8 nM Europium-conjugated streptavidin (PERKIN ELMER LIFE SCIENCES INC., catalog #AD0062) and 4.0 nM biotinylated human angiopoietin 1 (R & D Systems) or angiopoietin 2 (Amgen Inc.) to each well. In a separate microtiter plate, angiopoietin-neutralizing agents were titrated from 400 nM to […] in HTRF buffer, and 50 ul of each serially-diluted angiopoietin-neutralizing agent were then transferred and mixed with the “mix plate” containing the streptavidin-Europium/angiopoietin. The plate was then incubated on a shaker at room temperature for one hour. […] The final “assay plate” was incubated at room temperature with shaking for two hours. […] Assay plates were analyzed using a Rubystar plate reader (BMG Labtechnologies, Offenberg, Germany). […] IC50 values were then calculated by analyzing percentage inhibition using the GRAFIT 5.0 program (Erithacus Software Ltd.).
(§2) All results were expressed as IC50 curves calculated from samples that were tested in duplicate using the formula below.
On the technique in general: In TR-FRET formats the signal depends on donor and acceptor labels being close together.

Test [11] addresses T2, human angiopoietin-2. Briefly: ELISA: antibody titrated against 1 nM hTie2-Fc on plate-bound human Ang2 (293T conditioned media). Here is the method:
(§3) For the ELISA assay, ninety-six-well microtiter plates were coated with recombinant angiopoietins in 293T cell conditioned media (DMEM/50 ug/ml BSA) at 37° C. for 1 hour. […] Plates were washed with PBS/0.1% Tween-20 and then blocked for 2 hours at room temperature with PBS/5% BSA. […] Goat anti-mouse-IgG-HRP (Pierce, catalog #31432) was added at a dilution of 1:10,000 in PBS/1% BSA (1 hour incubated at room temperature), after which plates were washed several times with PBS/0.1% Tween-20.
as §2

Test [12] concerns the target T5, Mouse Ang2 (recombinant, 293T cell conditioned media) (mouse, UniProt O35608 19-496).
T5 construct: construct not described
T5 sequence (looked up): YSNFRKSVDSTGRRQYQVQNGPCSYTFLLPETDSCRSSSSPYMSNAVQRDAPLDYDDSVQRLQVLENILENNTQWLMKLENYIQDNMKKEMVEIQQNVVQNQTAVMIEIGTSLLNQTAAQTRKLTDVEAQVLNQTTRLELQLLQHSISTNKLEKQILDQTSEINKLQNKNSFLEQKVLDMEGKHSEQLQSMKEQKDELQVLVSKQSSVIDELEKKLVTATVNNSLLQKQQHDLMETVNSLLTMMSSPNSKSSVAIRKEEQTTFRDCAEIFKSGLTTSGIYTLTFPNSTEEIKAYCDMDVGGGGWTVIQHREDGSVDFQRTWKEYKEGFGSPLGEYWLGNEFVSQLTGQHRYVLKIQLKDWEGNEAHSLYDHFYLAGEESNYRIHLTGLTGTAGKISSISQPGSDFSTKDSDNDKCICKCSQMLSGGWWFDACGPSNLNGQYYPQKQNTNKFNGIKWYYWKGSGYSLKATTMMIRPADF
In words: ELISA: antibody titrated against 1 nM hTie2-Fc on plate-bound mouse Ang2 (293T conditioned media). Here is the method:
as §3, §2

Experimental findings from patent US20130142799A1 (Amgen, published 2013) are described below.

T4 sequence (Q02763 23-748): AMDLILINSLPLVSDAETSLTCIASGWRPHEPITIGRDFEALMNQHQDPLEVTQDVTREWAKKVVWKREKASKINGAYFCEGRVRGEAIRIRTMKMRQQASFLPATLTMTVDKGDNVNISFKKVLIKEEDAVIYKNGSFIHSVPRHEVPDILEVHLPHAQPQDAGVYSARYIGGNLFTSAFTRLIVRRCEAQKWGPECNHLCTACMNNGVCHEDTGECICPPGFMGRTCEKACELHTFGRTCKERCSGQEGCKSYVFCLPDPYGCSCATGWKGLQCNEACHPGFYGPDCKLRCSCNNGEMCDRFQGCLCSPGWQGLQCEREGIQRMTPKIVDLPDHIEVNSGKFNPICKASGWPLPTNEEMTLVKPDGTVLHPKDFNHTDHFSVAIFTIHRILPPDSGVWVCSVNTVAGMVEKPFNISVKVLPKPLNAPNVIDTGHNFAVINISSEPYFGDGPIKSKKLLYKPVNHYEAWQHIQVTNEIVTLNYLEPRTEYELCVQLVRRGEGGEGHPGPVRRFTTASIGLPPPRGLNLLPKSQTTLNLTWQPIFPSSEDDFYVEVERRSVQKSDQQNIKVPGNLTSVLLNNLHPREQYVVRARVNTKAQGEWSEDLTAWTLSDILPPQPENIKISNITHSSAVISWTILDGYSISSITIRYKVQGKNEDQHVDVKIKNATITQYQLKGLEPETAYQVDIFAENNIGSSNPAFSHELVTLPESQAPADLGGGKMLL

B1: Ab 545 (antibody, human IgG1, lambda, V domains shown)
VH: QVQLQESGGGVVQPGRSLRLSCAASGFTFSSYGMHWVRQAPGKGLEWVAVISYDGSNKYYADSVKGRFTISRDNSKNTLYLQMNSLRAEDTAVYYCAKGPVDFDYGDYAIDYWGQGTLVTVSS
VL: QSVLTQPSSVSGAPGQRVTISCTGQSSNIGAGYDVHWYQQFPGRAPKLLIYGNSNRPSGVPDRFSGSKSGTSASLAITGLQPEDEADYYCQSYDSRLSGSVFGGGTKLTVLG
notes: Fully human IgG1 lambda; also called clone 545
One may read the EC50 as the midpoint of the concentration-response curve. The term Kd denotes the constant that tells how readily two partners part at equilibrium. Read a high Kd as lower affinity. One may read the koff as the rate constant with which the complex falls apart. Lower therefore signals slow dissociation. A word on the kon: it is the rate constant with which the complex forms. Read a high kon as faster complex formation. A word on the IC50: it is the concentration needed to halve the response being measured. As for B1, the figures for the EC50 in test [1], in test [2] and in test [3] were 2 nM, 0.02 nM and 0.05 nM, respectively. The Kd in test [4] was determined as 0.9 nM; in test [5], 1.2 nM. The values for the koff in [4] and in [5] were 0.00053 s⁻¹ and 0.00039 s⁻¹, respectively. The association rate constant (kon) turned out to be 590000 M⁻¹ s⁻¹ in test [4] and 330000 M⁻¹ s⁻¹ in [5]. Besides, the IC50 in [6] came to 8.31 nM; in [7], 1.04 nM; in test [8], 1.3 nM.

B2: N-term hAng2 (aa 1-254) (ligand)
chain: YNNFRKSMDSIGKKQYQVQHGSCSYTFLLPEMDNCRSSSSPYVSNAVQRDAPLEYDDSVQRLQVLENIMENNTQWLMKLENYIQDNMKKEMVEIQQNAVQNQTAVMIEIGTNLLNQTAEQTRKLTDVEAQVLNQTTRLELQLLEHSLSTNKLEKQILDQTSEINKLQDKNSFLEKKVLAMEDKHIIQLQSIKEEKDQLQVLVSKQNSIIEELEKKIVTATVNNSVLQKQQHDLMETHHHHHH
notes: also called N-terminal human Ang-2
Regarding B2, the binding result in test [9] is listed as “no binding (tested: 1 µg/ml)”.

B3: Ab 536 (THW/LQT mixture) (antibody, V domains shown)
VH: EVQLVQSGGGVVQPGRSLRLSCAASGFTFSSYGMHWVRQAPGKGLEWVSYISSSGSTIYYADSVKGRFTISRDNAKNSLYLQMNSLRAEDTAVYYCARDLLDYDILTGYGYWGQGTLVTVSS
VL: not shown
notes: each antibody in the mixture has two heavy and two light chains; also called clone 536; copies: 2 + 2
B3: the concentration giving a half-maximal response (EC50) amounted to 30 nM in test [1], 0.005 nM in test [2] and 0.01 nM in test [3]. For the same molecule, the Kd was 0.15 nM in test [4] and 0.12 nM in [5]. Also, the koff came to 9.5e-05 s⁻¹ in [4] and 3.8e-05 s⁻¹ in test [5]. Further, the kon came to 620000 M⁻¹ s⁻¹ in [4] and 320000 M⁻¹ s⁻¹ in [5]. Also, the IC50 in [6] amounted to 115 nM; in [7] it was 0.08 nM; in test [8] it was 0.05 nM.

B4: Ab536 THW (antibody, human IgG1, kappa, V domains shown)
VH: EVQLVQSGGGVVQPGRSLRLSCAASGFTFSSYGMHWVRQAPGKGLEWVSYISSSGSTIYYADSVKGRFTISRDNAKNSLYLQMNSLRAEDTAVYYCARDLLDYDILTGYGYWGQGTLVTVSS
VL: not shown
notes: Fully human IgG1 kappa; variant separated from the clone 536 mixture; also called 536 kappa THW variant
In the case of B4, the 50% inhibitory concentration (IC50) came out at 0.071 nM in test [10], 0.31 nM in [11] and 0.088 nM in test [12].

B5: Ab536 LQT (antibody, human IgG1, kappa, V domains shown)
VH: EVQLVQSGGGVVQPGRSLRLSCAASGFTFSSYGMHWVRQAPGKGLEWVSYISSSGSTIYYADSVKGRFTISRDNAKNSLYLQMNSLRAEDTAVYYCARDLLDYDILTGYGYWGQGTLVTVSS
VL: not shown
notes: Fully human IgG1 kappa; variant separated from the clone 536 mixture; also called 536 kappa LQT variant
On to B5, for which the IC50 in test [10] was 0.072 nM; in test [11], 0.35 nM; in [12], 0.1 nM.
